Data taken from patent publication US20230118517A1, “METHODS OF TREATING MULTIPLE MYELOMA” (Seagen Inc., priority 2020, published 2023).
Several values for one entry are separate records, joined by “and”; a condition that tells them apart may be missing. Equal entries are not always repeated. Where two headings read alike, the source gives them in different places.

Tests used:
[1] = Antitherapeutic antibody (ATA) assessment in patient serum; type: in vivo, human; details: all samples tested
Excerpt: A qualified electrochemiluminescence assay were used to assess ATA.

BCMA on MM1R cells = target: T1, BCMA on MM1R cells (Homo sapiens, UniProt Q02223); test: In vitro cell binding capacity assay (free SEA-BCMA in patient serum); type: cell-based; details: for patients in whom high levels of free SEA-BCMA were maintained throughout the dosing period: Q2wk
T1 construct: endogenous in cells; host or cells: MM1R cells
T1 sequence (Q02223 1-184): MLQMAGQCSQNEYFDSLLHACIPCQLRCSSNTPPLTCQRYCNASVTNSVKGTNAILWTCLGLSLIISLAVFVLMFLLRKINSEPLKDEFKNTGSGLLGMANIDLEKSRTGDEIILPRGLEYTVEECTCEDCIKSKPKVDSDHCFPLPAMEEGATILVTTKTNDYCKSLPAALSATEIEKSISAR
Excerpt: An in vitro cell binding capacity assay was developed to complement serum concentration measurements of total SEA-BCMA, total soluble BCMA, and flow cytometric evaluation of free, unbound BCMA and total BCMA on plasma cells from the bone marrow. The assay measures the ability of free, unbound SEA-BCMA (e.g. not bound by sBCMA) from patient serum to bind and saturate BCMA in-vitro on a BCMA positive cell line. Titrations of known SEA-BCMA concentrations allow for an evaluation of the concentrations of free, unbound SEA-BCMA in patient serum. Together with a measurement of the percent-bound BCMA on the cell surface, this provides a direct indication of the ability of dosed SEA-BCMA to bind and saturate cell membrane-bound BCMA.
After incubation at room temperature for ½ hour, the cells were washed and stained with a saturating amount of SEA-BCMA conjugated to a fluorescent dye. After incubation at 4° C. in the dark for ½ hr, the cells were washed and fixed. Stained cells were analyzed on an Invitrogen Attune NxT flow cytometer. FlowJo V10 software was used to gate on viable cells and record the median fluorescent intensity (MFI). GraphPad Prism 8 was used for analysis.
The recorded MFI was normalized as follows. Normalization to 0% binding is the MFI from a control well incubated in healthy human serum with no SEA-BCMA present. Normalization to 100% binding is the MFI from a control well incubated in healthy human serum spiked with SEA-BCMA to a concentration 200 μg/mL. A titration of SEA-BCMA in healthy human serum may be used to generate a standard curve using the known amounts of SEA-BCMA.
The maintenance of free SEA-BCMA in the patient serum that are able to bind in vitro to the cell-surface BCMA of a BCMA-expressing cell line was investigated.

Molp-8 MM target cells = test: ADCC 51Cr release assay with NK effector cells; type: cell-based; details: Molp-8, with vs without 0.2 μM Nirogacestat, NK cells 10:1, 4 h
Experimental: Whether the enhanced FcγRIII signaling translated to increased lysis of MM target cells by SEA-BCMA was determined. Molp-8 MM target cells were incubated with and without 0.2 μM Nirogacestat (purchased from SelleckChem) for 24 hrs. Cells were then Na2 [^51Cr] O4 labeled and added to titrations of SEA-BCMA, or isotype antibody control. Effector cells, NK cells enriched from normal donor PBMC, were added at an effector-to-target cell ratio of 10:1 (50,000:5000). Donor NK cells were of the high affinity FcγRIII V/V genotype. The combination of antibodies, NK cells and target cells were incubated for 4 h at 37° C. with and without Nirogacestat. The radioactivity released into the culture supernatant of lysed target cells was then measured and the percent specific cell lysis calculated. […] This is the primary of mechanism of action of SEA-BCMA and translates to specific enhanced anti-MM lysis. It is expected that this will translate to improvements in anti-MM activity in the clinic when SEA-BCMA is combined with GSIs.

NF-κB p65 = NF-κB p65 activity ELISA on nuclear extract; type: cell-based; details: NCI-H929, 20 μg/mL SEA-BCMA, 0.2 μM Nirogacestat
Experimental: The secondary mechanism of action of SEA-BCMA is to block BCMA proliferative cell signaling. Increased BCMA from GSI treatment is expected to induce increased BCMA signaling. Therefore, the block of this enhanced signaling by SEA-BCMA was tested. BCMA-expressing NCI-H929 cells were serum-starved with and without 0.2 μM Nirogacestat (purchased from SelleckChem) for 16 hrs. Cells were then bound with and without 20 μg/mL SEA-BCMA and incubated with and without 1 μg/ml recombinant human APRIL (R&D Systems) for 20 minutes at 37° C. in the presence or absence of 0.2 μM Nirogacestat. 1 μg of nuclear extract was assayed in duplicate for NF-κB p65 activity by ELISA (TransAM NFκB Chemi p65, Active Motif).

[2] = tested on: MM1R myeloma target cells; test: PBMC-mediated MM1R target cell killing, first experiment (48 hrs, 3 μM pomalidomide); type: cell-based; details: combined with Pomalidomide, benchmarked against elotuzumab and WT-BCMA, N=2
Experimental: Experiments were performed to test whether SEA-BCMA combines effectively with pomalidomide in vitro by combining PBMC effector cells with MM1R target cells treated with both pomalidomide and SEA-BCMA or antibody controls. The first experiment (FIG. 12A) benchmarks against MM standard of care elotuzumab and nonfucosylated parent BCMA antibody. The second experiment (FIG. 12B) benchmarks against MM standard of care daratumumab. MM1R target cells express 15,000 copies of BCMA, 12,000 copies of CS1 (elotuzumab target), and 36,000 copies of CD38 (daratumumab target).
In the first experiment (FIG. 12A), normal donor PBMCs of the FcγRIII V/F genotype were mixed with CFSE (Invitrogen cat #V12883) labeled MM1R myeloma target cells at an effector-to-target cell ratio of 10:1. The mixture was treated with a dose range of the following antibodies: SEA-BCMA, elotuzumab, WT-BCMA (fucosylated parent Ab), or non-binding hIgG1k antibody control (Sigma cat #15154) with or without 3 μM pomalidomide (APEx Bio, cat #A4211). After 48 hrs, the % live MM1R cells were then determined using the viability dye 7-AAD (BD Biosciences, cat #559925) by flow cytometry.

[3] = Pharmacokinetic analysis of SEA-BCMA serum concentration in patients
[4] = among 20 total patients treated

## SEA-BCMA: non-fucosylated monoclonal anti-BCMA antibody having heavy chain SEQ ID NO: 13 and light chain SEQ ID NO: 15
[1]
  anti-SEA-BCMA antibodies: No anti-SEA-BCMA antibodies were found
BCMA on MM1R cells; 800 mg (or equivalent)
  patients in whom high levels of free SEA-BCMA were maintained throughout the dosing period: 6/8 and 6 out of 8
BCMA on MM1R cells; 1600 mg
  patients in whom high levels of free SEA-BCMA were maintained throughout the dosing period: 7/7 and all patients
BCMA on MM1R cells; serum of patients dosed 100 mg-400 mg, two doses 14 days apart
  maintenance of >95% bound BCMA in vitro through the dosing interval: not able to maintain >95% bound BCMA in vitro
Molp-8 MM target cells
  ADCC (specific cell lysis): Increased ADCC
NF-κB p65
  block of Nirogacestat-increased NF-κB signaling: partially blocked
[2]
  MM1R target cell killing: greater MM1R target cell killing
1600 mg per dose once every 2 weeks
  safety: found to be safe
20 patients, 100-1600 mg
  safety profile: well-tolerated with no severe adverse effects
Patient A, 1600 mg every two weeks, second cycle
  adverse event: Grade 2 maculopapular rash
[4]
  dose-limiting toxicity (DLT) (Grade 3 infusion-related reactions): 1 case
  total serious infusion-related reactions: 2
Combination with dexamethasone, SEA-BCMA Day 1 and 15, dexamethasone Day 1, 8, 15, 22 of 28-day cycle
  safety: found to be safe
Dose escalation cohort
  delayed-onset infusion-related reactions (IRRs): no instances of delayed-onset infusion-related reactions
human, in vivo
  maximum tolerated dose (MTD): completed without exceeding MTD
Intensive dosing: 1600 mg q1wk for 8 doses, then once every two weeks
  safety: intensive dosing was safe
patient, 200 mg escalated to 1600 mg every two weeks, cycles 1-10
  safety and tolerability: tolerated the therapy well without any adverse effects related to SEA-BCMA
[3]; Q2W dosing
  time at which PK reaches steady state: steady state at cycle 3
[3]; after Q2W dosing
  accumulation at steady state: approximately 70%
